{"source": "patent US6030776", "key": {"[1]": {"target": "des-Arg9-bradykinin lacks carboxy-terminal Arg9 (UniProt P01042)", "experiment": "inhibition", "conditions": "5' guanosine monophosphorothioate (GMPS); inhibition of reaction of 12.1 with BrBK; about 18-fold weaker than BK"}, "[2]": {"target": "bradykinin (native BK peptide) (UniProt P01042)", "experiment": "inhibition", "conditions": "5' guanosine monophosphorothioate (GMPS); inhibition of reaction of 12.1 with BrBK; nearly identical to Km of the uninhibited reaction"}, "[3]": {"target": "N-bromoacetyl-bradykinin (BrBK) (UniProt P01042)", "conditions": "5' guanosine monophosphorothioate (GMPS); 100-fold reduction in Km vs bulk 30N1 pool, 67-fold higher kcat, 6700-fold higher kcat/Km; thioether bond formation assayed on APM gel"}}}
{"sequence": "AGGCUUCGACAAACGCUCAAAGCUGUUGGCAGCGCUGGUGAAGGGAUGGC [reactant 12.1 GMPS-RNA]", "values": [{"measurement": "Ki", "setting": "[1]", "result": 2.6, "unit": "mM"}, {"measurement": "Ki", "setting": "[2]", "result": 140, "unit": "µM"}, {"measurement": "fold reduction in Km vs starting pool", "setting": "[3]", "result": 100, "unit": "fold"}]}
